How the values were obtained:
HeLa Kyoto [1] = assay: solubility change mitosis vs G1/S (difference of NP-40 vs SDS log2 ratios) (log2 ratio difference); higher = more soluble in mitosis
HeLa Kyoto [2] = assay: thermal stability score vs G1/S (z-score of summed log2 fold changes over temperatures); higher = more thermally stable than in G1/S
HeLa Kyoto [3] = assay: melting temperature (median over replicates), in situ; higher = more thermally stable
HeLa Kyoto [4] = assay: solubility in G1/S (NP-40 vs SDS abundance) (log2 ratio); higher = more soluble; conditions: cell cycle stage: G1/S
[5] = cell cycle stage: early G1 (4.5 h after nocodazole release)
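Throughout, for melting temperature (median over replicates), in situ: HeLa Kyoto cells synchronized by double thymidine or nocodazole block, proteins quantified by TMT10plex mass spectrometry, three independent biological replicates.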
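Throughout, for solubility change mitosis vs G1/S (difference of NP-40 vs SDS log2 ratios): synchronized HeLa Kyoto cells (double thymidine block for G1/S, nocodazole release for mitosis), protein amounts in NP-40 versus SDS lysates quantified by mass spectrometry, three biological replicates.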
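Throughout, for solubility in G1/S (NP-40 vs SDS abundance): HeLa Kyoto cells arrested at G1/S by double thymidine block, proteins quantified by TMT10plex mass spectrometry in mild NP-40 versus SDS extracts, three biological replicates.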
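Throughout, for thermal stability score vs G1/S (z-score of summed log2 fold changes over temperatures): synchronized HeLa Kyoto cells, proteins quantified by TMT10plex mass spectrometry, three biological replicates, mitosis taken 0.5 h after nocodazole release, G1/S directly after double thymidine block.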

Sequence | solubility change mitosis (log2) (HeLa Kyoto [1]) | thermal stability score (HeLa Kyoto [2]; [5]) | thermal stability score (HeLa Kyoto [2]; cell cycle stage: mitosis) | melting temperature (HeLa Kyoto [3]; cell cycle stage: G1/S) | melting temperature (HeLa Kyoto [3]; cell cycle stage: mitosis) | solubility in G1/S (log2) (HeLa Kyoto [4])
MGKRDRADRDKKKSRKRHYEDEEDDEEDAPGNDPQEAVPSAAGKQVDESGTKVDEYGAKDYRLQMPLKDDHTSRPLWVAPDGHIFLEAFSPVYKYAQDFLVAIAEPVCRPTHVHEYKLTAYSLYAAVSVGLQTSDITEYLRKLSKTGVPDGIMQFIKLCTVSYGKVKLVLKHNRYFVESCHPDVIQHLLQDPVIRECRLRNSEGEATELITETFTSKSAISKTAESSGGPSTSRVTDPQGKSDIPMDLFDFYEQMDKDEEEEEETQTVSFEVKQEMIEELQKRCIHLEYPLLAEYDFRNDSVNPDINIDLKPTAVLRPYQEKSLRKMFGNGRARSGVIVLPCGAGKSLVGVTAACTVRKRCLVLGNSAVSVEQWKAQFKMWSTIDDSQICRFTSDAKDKPIGCSVAISTYSMLGHTTKRSWEAERVMEWLKTQEWGLMILDEVHTIPAKMFRRVLTIVQAHCKLGLTATLVREDDKIVDLNFLIGPKLYEANWMELQNNGYIAKVQCAEVWCPMSPEFYREYVAIKTKKRILLYTMNPNKFRACQFLIKFHERRNDKIIVFADNVFALKEYAIRLNKPYIYGPTSQGERMQILQNFKHNPKINTIFISKVGDTSFDLPEANVLIQISSHGGSRRQEAQRLGRVLRAKKGMVAEEYNAFFYSLVSQDTQEMAYSTKRQRFLVDQGYSFKVITKLAGMEEEDLAFSTKEEQQQLLQKVLAATDLDAEEEVVAGEFGSRSSQASRRFGTMSSMSGADDTVYMEYHSSRSKAPSKHVHPLFKRFRK [ERCC3] | -0.0174 | 0.89 | 1.14 | 47.9 °C | 49.6 °C | -0.561
MGLAGVCALRRSAGYILVGGAGGQSAAAAARRYSEGEWASGGVRSFSRAAAAMAPIKVGDAIPAVEVFEGEPGNKVNLAELFKGKKGVLFGVPGAFTPGCSKTHLPGFVEQAEALKAKGVQVVACLSVNDAFVTGEWGRAHKAEGKVRLLADPTGAFGKETDLLLDDSLVSIFGNRRLKRFSMVVQDGIVKALNVEPDGTGLTCSLAPNIISQL [PRDX5] | 0.124 | -1.13 | -2.67 | 55.9 °C | 55.9 °C | 0.582
MGLETEKADVQLFMDDDSYSHHSGLEYADPEKFADSDQDRDPHRLNSHLKLGFEDVIAEPVTTHSFDKVWICSHALFEISKYVMYKFLTVFLAIPLAFIAGILFATLSCLHIWILMPFVKTCLMVLPSVQTIWKSVTDVIIAPLCTSVGRCFSSVSLQLSQD [CAV2] | -0.0267 | -1.45 | -2.03 | 56.1 °C | 56.9 °C | -0.178
MGLPEPGPLRLLALLLLLLLLLLLQLQHLAAAAADPLLGGQGPAKDCEKDQFQCRNERCIPSVWRCDEDDDCLDHSDEDDCPKKTCADSDFTCDNGHCIHERWKCDGEEECPDGSDESEATCTKQVCPAEKLSCGPTSHKCVPASWRCDGEKDCEGGADEAGCATLCAPHEFQCGNRSCLAAVFVCDGDDDCGDGSDERGCADPACGPREFRCGGDGGGACIPERWVCDRQFDCEDRSDEAAELCGRPGPGATSAPAACATASQFACRSGECVHLGWRCDGDRDCKDKSDEADCPLGTCRGDEFQCGDGTCVLAIKHCNQEQDCPDGSDEAGCLQGLNECLHNNGGCSHICTDLKIGFECTCPAGFQLLDQKTCGDIDECKDPDACSQICVNYKGYFKCECYPGYEMDLLTKNCKAAAGKSPSLIFTNRHEVRRIDLVKRNYSRLIPMLKNVVALDVEVATNRIYWCDLSYRKIYSAYMDKASDPKEQEVLIDEQLHSPEGLAVDWVHKHIYWTDSGNKTISVATVDGGRRRTLFSRNLSEPRAIAVDPLRGFMYWSDWGDQAKIEKSGLNGVDRQTLVSDNIEWPNGITLDLLSQRLYWVDSKLHQLSSIDFSGGNRKTLISSTDFLSHPFGIAVFEDKVFWTDLENEAIFSANRLNGLEISILAENLNNPHDIVIFHELKQPRAPDACELSVQPNGGCEYLCLPAPQISSHSPKYTCACPDTMWLGPDMKRCYRAPQSTSTTTLASTMTRTVPATTRAPGTTVHRSTYQNHSTETPSLTAAVPSSVSVPRAPSISPSTLSPATSNHSQHYANEDSKMGSTVTAAVIGIIVPIVVIALLCMSGYLIWRNWKRKNTKSMNFDNPVYRKTTEEEDEDELHIGRTAQIGHVYPAAISSFDRPLWAEPCLGETREPEDPAPALKELFVLPGEPRSQLHQLPKNPLSELPVVKSKRVALSLEDDGLP [LRP8] | -0.0602 | -3.43 | -3.53 | 55.6 °C | 56.7 °C | 0.0581
MGLTKQYLRYVASAVFGVIGSQKGNIVFVTLRGEKGRYVAVPACEHVFIWDLRKGEKILILQGLKQEVTCLCPSPDGLHLAVGYEDGSIRIFSLLSGEGNVTFNGHKAAITTLKYDQLGGRLASGSKDTDIIVWDVINESGLYRLKGHKDAITQALFLREKNLLVTSGKDTMVKWWDLDTQHCFKTMVGHRTEVWGLVLLSEEKRLITGASDSELRVWDIAYLQEIEDPEEPDPKKIKGSSPGIQDTLEAEDGAFETDEAPEDRILSCRKAGSIMREGRDRVVNLAVDKTGRILACHGTDSVLELFCILSKKEIQKKMDKKMKKARKKAKLHSSKGEEEDPEVNVEMSLQDEIQRVTNIKTSAKIKSFDLIHSPHGELKAVFLLQNNLVELYSLNPSLPTPQPVRTSRITIGGHRSDVRTLSFSSDNIAVLSAAADSIKIWNRSTLQCIRTMTCEYALCSFFVPGDRQVVIGTKTGKLQLYDLASGNLLETIDAHDGALWSMSLSPDQRGFVTGGADKSVKFWDFELVKDENSTQKRLSVKQTRTLQLDEDVLCVSYSPNQKLLAVSLLDCTVKIFYVDTLKFFLSLYGHKLPVICMDISHDGALIATGSADRNVKIWGLDFGDCHKSLFAHDDSVMYLQFVPKSHLFFTAGKDHKIKQWDADKFEHIQTLEGHHQEIWCLAVSPSGDYVVSSSHDKSLRLWERTREPLILEEEREMEREAEYEESVAKEDQPAVPGETQGDSYFTGKKTIETVKAAERIMEAIELYREETAKMKEHKAICKAAGKEVPLPSNPILMAYGSISPSAYVLEIFKGIKSSELEESLLVLPFSYVPDILKLFNEFIQLGSDVELICRCLFFLLRIHFGQITSNQMLVPVIEKLRETTISKVSQVRDVIGFNMAGLDYLKRECEAKSEVMFFADATSHLEEKKRKRKKREKLILTLT [WDR3] | 0.614 | 2.25 | 3.44 | 50.2 °C | 50.9 °C | -1.64
MGNSALRAHVETAQKTGVFQLKDRGLTEFPADLQKLTSNLRTIDLSNNKIESLPPLLIGKFTLLKSLSLNNNKLTVLPDEICNLKKLETLSLNNNHLRELPSTFGQLSALKTLSLSGNQLGALPPQLCSLRHLDVMDLSKNQIRSIPDSVGELQVIELNLNQNQISQISVKISCCPRLKILRLEENCLELSMLPQSILSDSQICLLAVEGNLFEIKKLRELEGYDKYMERFTATKKKFA [LRRC57] | 0.00239 | -0.373 | -0.56 | 53.2 °C | 53.6 °C | 0.266
MGNVLAASSPPAGPPPPPAPALVGLPPPPPSPPGFTLPPLGGSLGAGTSTSRSSERTPGAATASASGAAEDGACGCLPNPGTFEECHRKCKELFPIQMEGVKLTVNKGLSNHFQVNHTVALSTIGESNYHFGVTYVGTKQLSPTEAFPVLVGDMDNSGSLNAQVIHQLGPGLRSKMAIQTQQSKFVNWQVDGEYRGSDFTAAVTLGNPDVLVGSGILVAHYLQSITPCLALGGELVYHRRPGEEGTVMSLAGKYTLNNWLATVTLGQAGMHATYYHKASDQLQVGVEFEASTRMQDTSVSFGYQLDLPKANLLFKGSVDSNWIVGATLEKKLPPLPLTLALGAFLNHRKNKFQCGFGLTIG [TOMM40] | -0.17 | -1.53 | -3.48 | 62.9 °C | 61.7 °C | 0.262
MGPAPAGEQLRGATGEPEVMEPALEGTGKEGKKASSRKRTLAEPPAKGLLQPVKLSRAELYKEPTNEELNRLRETEILFHSSLLRLQVEELLKEVRLSEKKKDRIDAFLREVNQRVVRVPSVPETELTDQAWLPAGVRVPLHQVPYAVKGCFRFLPPAQVTVVGSYLLGTCIRPDINVDVALTMPREILQDKDGLNQRYFRKRALYLAHLAHHLAQDPLFGSVCFSYTNGCHLKPSLLLRPRGKDERLVTVRLHPCPPPDFFRPCRLLPTKNNVRSAWYRGQSPAGDGSPEPPTPRYNTWVLQDTVLESHLQLLSTILSSAQGLKDGVALLKVWLRQRELDKGQGGFTGFLVSMLVVFLVSTRKIHTTMSGYQVLRSVLQFLATTDLTVNGISLCLSSDPSLPALADFHQAFSVVFLDSSGHLNLCADVTASTYHQVQHEARLSMMLLDSRADDGFHLLLMTPKPMIRAFDHVLHLRPLSRLQAACHRLKLWPELQDNGGDYVSAALGPLTTLLEQGLGARLNLLAHSRPPVPEWDISQDPPKHKDSGTLTLGLLLRPEGLTSVLELGPEADQPEAAKFRQFWGSRSELRRFQDGAIREAVVWEAASMSQKRLIPHQVVTHLLALHADIPETCVHYVGGPLDALIQGLKETSSTGEEALVAAVRCYDDLSRLLWGLEGLPLTVSAVQGAHPVLRYTEVFPPTPVRPAFSFYETLRERSSLLPRLDKPCPAYVEPMTVVCHLEGSGQWPQDAEAVQRVRAAFQLRLAELLTQQHGLQCRATATHTDVLKDGFVFRIRVAYQREPQILKEVQSPEGMISLRDTAASLRLERDTRQLPLLTSALHGLQQQHPAFSGVARLAKRWVRAQLLGEGFADESLDLVAAALFLHPEPFTPPSSPQVGFLRFLFLVSTFDWKNNPLFVNLNNELTVEEQVEIRSGFLAARAQLPVMVIVTPQDRKNSVWTQDGPSAQILQQLVVLAAEALPMLEKQLMDPRGPGDIRTVFRPPLDIYDVLIRLSPRHIPRHRQAVDSPAASFCRGLLSQPGPSSLMPVLGYDPPQLYLTQLREAFGDLALFFYDQHGGEVIGVLWKPTSFQPQPFKASSTKGRMVMSRGGELVMVPNVEAILEDFAVLGEGLVQTVEARSERWTV [NOL6] | 0.851 | -1.55 | -1.79 | 52.4 °C | 51.4 °C | -1.58
MGPRKKSVKTCIMNNEIPEEMTADETKDYMNQLSHEVLCHIFRYLPLQDIMCMECLSRKLKEAVTLYLRVVRVVDLCAGRWWEYMPSGFTDASFLTLLKKMPDVEQLYGLHPRYLERRRVRGHEAFSIPGVLEALQACPNLVGVETSHLELVESIWTYMPHVHILGKFRNRNGAFPIPPENKLKIPIGAKIQTLHLVGVNVPEIPCIPMLRHLYMKWVRLTKPQPFKDFLCISLRTFVMRNCAGPTNSLKYVPLVTGLASARNLEHLEMVRVPFLGGLIQHVVEDSWRSGGFRNLHTIVLGACKNALEVDLGYLIITAARRLHEVRIQPSLTKDGVFSALKMAELEFPQFETLHLGYVDEFLLQSRMANADLVKYGLADVVENPGIITDIGMKAVNEVFSCIKYLAIYNCPHLHNPYNWISDHSRWTRLVDINLVRCHALKLDSFGQFIELLPSLEFISLDQMFREPPKGCARVGLSAGTGIGVSSALVSNQNSNNDDNNAQNNNANIHDNNHHHPDDSDEENDFRQDLQPGEQQFAADALNEMEDIVQEDGEVVAESGNNTPAHSQAIIPVDVDEEQAGPSGLQRVVKPTSITVHDSESDDEEDSLELQEVWIPKNGTRRYSEREEKTGESVQSRELSVSGKGKTPLRKRYNSHQMGQSKQFPLEESSCEKGCQVTSEQIKADMKAARDIPEKKKNKDVYPSCSSTTASTVGNSSSHNTASQSPDFVRTVNSGGSSEPSPTEVDVSRQCACSPGGSEDSEAMEEGDAESSVCPRCCCHRPQESQRRTSRCSDEERPSTSRACVVNGPDGTRSAFSFRTLPQGGSSGPAHDERTNGSGSGATGEDRRGSSQPESCDVQSNEDYPRRPLTRARSRLSHVLLVSESEVAKTKPRHAMKRKRTADKSTSTSDPVIEDDHVQVLVLKSKNLVGVTMTNCGITDLVLKDCPKMMFIHATRCRVLKHLKVENAPIVNRFDYAQCKKLNMDQVLDQILRMPPERNRIIYLRPMQQVDTLTLEQKLFSGPYPYHICIIHEFSNPPNVRNKVRIRSWMDTIANINQELIKYEFFPEATRSEEDLKKYPKYPWGREIYTLEGVVDGAPYSMISDFPWLRSLRAAEPNSFARYDFEDDEESTIYAPRRKGQLSADICMETIGEEISEMRQMKKGVFQRVVAIFIHYCDVNGEPVEDDYI [FBXO38] | -0.0833 | -0.768 | -0.745 | 51.6 °C | 51.3 °C | -0.338
